Laboratory results published in IntAct's records for PubMed 21107322.

B1: G2/mitotic-specific cyclin cdc13 (Schizosaccharomyces pombe (strain ATCC 38366 / 972)), P10815 (parent)
chain: MTTRRLTRQHLLANTLGNNDENHPSNHIARAKSSLHSSENSLVNGKKATVSSTNVPKKRHALDDVSNFHNKEGVPLASKNTNVRHTTASVSTRRALEEKSIIPATDDEPASKKRRQPSVFNSSVPSLPQHLSTKSHSVSTHGVDAFHKDQATIPKKLKKDVDERVVSKDIPKLHRDSVESPESQDWDDLDAEDWADPLMVSEYVVDIFEYLNELEIETMPSPTYMDRQKELAWKMRGILTDWLIEVHSRFRLLPETLFLAVNIIDRFLSLRVCSLNKLQLVGIAALFIASKYEEVMCPSVQNFVYMADGGYDEEEILQAERYILRVLEFNLAYPNPMNFLRRISKADFYDIQTRTVAKYLVEIGLLDHKLLPYPPSQQCAAAMYLAREMLGRGPWNRNLVHYSGYEEYQLISVVKKMINYLQKPVQHEAFFKKYASKKFMKASLFVRDWIKKNSIPLGDDADEDYTFHKQKRIQHDMKDEEW
partner: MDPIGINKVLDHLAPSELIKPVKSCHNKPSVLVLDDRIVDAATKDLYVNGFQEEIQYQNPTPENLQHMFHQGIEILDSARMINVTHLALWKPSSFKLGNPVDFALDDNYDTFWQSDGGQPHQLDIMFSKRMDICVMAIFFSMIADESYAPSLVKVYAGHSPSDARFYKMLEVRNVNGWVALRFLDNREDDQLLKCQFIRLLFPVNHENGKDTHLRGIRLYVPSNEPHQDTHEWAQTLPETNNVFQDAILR

Variants of: B1
Details: with apc10_yeast DOC1, P53068

Variant | effect of a mutation on the interaction
R59A;L62A;V65A;N67A | decreasing interaction
